Source: patent CN116836278A

How the values were obtained:
[1] = target: Prog-Albumin偶联物(购自益缪诺，货号PROGO2); assay: indirect ELISA, Prog-Albumin conjugate coated at 3 ug/ml, antibody at 125 ng/ml
[2] = target: Prog-Albumin偶联物(购自益缪诺，货号PROGO2); assay: indirect ELISA, Prog-Albumin conjugate coated at 3 ug/ml, antibody at 250 ng/ml
[3] = target: Prog-Albumin偶联物(购自益缪诺，货号PROGO2); assay: indirect ELISA, Prog-Albumin conjugate coated at 3 ug/ml, antibody at 62.5 ng/ml
[4] = target: Prog-Albumin偶联物(购自益缪诺，货号PROGO2); assay: indirect ELISA, Prog-Albumin conjugate coated at 3 ug/ml, antibody at 31.25 ng/ml
[5] = target: Prog-Albumin偶联物(购自益缪诺，货号PROGO2); assay: indirect ELISA, Prog-Albumin conjugate coated at 3 ug/ml, antibody at 15.625 ng/ml
[6] = target: Prog-Albumin偶联物(购自益缪诺，货号PROGO2); assay: biolayer interferometry, AMC sensor, antibody immobilised at 10 ug/ml, Prog-Albumin conjugate in dilution series

| Molecule | OD450 [1] [OD] | OD450 [2] [OD] | OD450 [3] [OD] | OD450 [4] [OD] | OD450 [5] [OD] | Kd [6] [nM] | koff [6] [s⁻¹] | kon [6] [M⁻¹ s⁻¹] |
| --- | --- | --- | --- | --- | --- | --- | --- | --- |
| 对照 (antibody) | 1.85 | 2.19 | 0.686 | 0.319 | 0.148 | 9.12 | 0.0002 | 21900 |
| Anti-Prog-5B3mut1 (antibody, V domains shown) VH: QVRLQESGPSLVKPSQTLSLTCTVSGFELTSKAVGWVRQAPGKVPEWLGSIVSGGATYYDPALKSRLTITRDTSKSQVSLSISSVSSEDTAEYWCVRASYAAGIWYFDYWGPGLLVTVSS VL: QAVLTQPPSVSGSLGQRVSLTCSGSSTNIGGGSYVHWYQRLPASGLKTIIYGTSRRPSGVPDRFSGSRSGNTATLTITSLQAEDEADYYCATEDSGSYPFGSGTRLTVLG | 1.92 | 2.22 | 0.94 | 0.566 | 0.32 | 0.168 | 0.00032 | 1.91e+06 |
| Anti-Prog-5B3mut2 (antibody, part only; not given: light chain, part only) heavy: QVRLQESGPSLVKPSQTLSLTCTVSGFELTSKAVGWVRQAPGKVPEWLGSIVSGGATYYDPALKSRLTITRDTSKSQVSLSISSVSSEDTAEYWCVRASYAAGIWYFDYWGPGLLVTVSSASTTPPKVYPLTSCCGDTSSSIVTLGCLVSSYMPEPVTVTWNSGALTSGVHTFPAILQSSGLYSLSSVVTVPASTSGAQTFICNVAHPASSTKVDKRVGLSSDYSKCSKPPCVSRPSVFIFPPKPKDSLMITGTPEVTCVVVDVGQGDPEVQFSWFVDNVEVRTARTKPREEQFNSTFRVVSALPIQHDHWTGGKEFKCKVHSKGLPAPLVRTISRAKGQAREPQVYVLAPPQEELSKSTLSVTCLVTGFYPDYIAVEWQRARQPESEDKYGTTTSQLDADGSYFLYSRLRVDKSSWQRGDTYACVVMHEALHNHYTQKSISKPPGK | 2.06 | 2.36 | 1.07 | 0.603 | 0.36 | 0.33 | 0.00027 | 819000 |
